The values that follow come from article PMC3234246, “HIV-1 Capsid-Cyclophilin Interactions Determine Nuclear Import Pathway, Integration Targeting and Replication Efficiency” (PLoS Pathogens, 2011).

The target of the assay is T1, cyclophilin A (CypA), human (human, UniProt P62937 1-165).
T1 construct: human cyclophilin A (peptidyl-prolyl cis-trans isomerase A)
Description: ITC; recombinant CypA or Nup358Cyp against recombinant CA^NTD, without cyclosporine; done as described in ref. 25. As to conditions: both partners purified. (ITC needs no label: the signal is the heat of the interaction.)

B1: SIVmac capsid N-terminal domain (CA^NTD) (domain or fragment)
chain: not shown
modifications: No candidate fits. The accession (SIVmac Gag, isolate Mm142-83) is from memory because the isolate is not printed. Limits are CA residues 1-144, matching HIV-1 CA 1-146 (pdb 1M9D entity 2). Check …
By Kd is commonly meant a measure of binding affinity in units of concentration. On to B1, for which the Kd was around 800 µM.
